For six molecules, binding result and Kd results are on record in article PMC3927877 (Nature Communications, 2013).

B1: STIM1 CC1_([TM-distal])-CC2 I383R (domain or fragment, human, UniProt Q13586 312-387, looked up)
chain: SRQKYAEEELEQVREALRKAEKELESHSSWYAPEALQKWLQLTHEVEVQYYNIKKQNAEKQLLVAKEGAEKRKKKR
B2: STIM1 CC1_([TM-distal])-CC2 A380R (domain or fragment, human, UniProt Q13586 312-387, looked up)
chain: SRQKYAEEELEQVREALRKAEKELESHSSWYAPEALQKWLQLTHEVEVQYYNIKKQNAEKQLLVAKEGREKIKKKR
B3: STIM1 CC1_([TM-distal])-CC2 E318Q/E319Q/E320Q/E322Q (domain or fragment, human, UniProt Q13586 312-387, looked up)
chain: SRQKYAQQQLQQVREALRKAEKELESHSSWYAPEALQKWLQLTHEVEVQYYNIKKQNAEKQLLVAKEGAEKIKKKR

Data set [1] addresses B3. Description: pull-down.
The target of data set [2] is STIM1 CC1_([TM-distal])-CC2 V324P (human, UniProt Q13586 312-387, V324P). Description: pull-down.
Data set [3] has as its target B2. Description: pull-down.
Data set [4] addresses B1. Put plainly: pull-down.
The data set “SEC-MALS” deals with the molecule itself. Put plainly: SEC-MALS. In general terms: Size exclusion chromatography separates by hydrodynamic size, large species first.
Data set [5] addresses STIM1 CC1_([TM-distal])-CC2 (residues 312-387) (human, UniProt Q13586 312-387). Description: NMR titration.

Broadly, the Kd is the constant that tells how readily two partners part at equilibrium. Higher therefore signals weaker binding.

Chain of STIM1 CC1_([TM-distal])-CC2 V324P (Q13586 312-387 V324P): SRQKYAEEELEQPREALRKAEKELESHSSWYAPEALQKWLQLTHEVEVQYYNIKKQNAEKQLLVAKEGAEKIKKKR

As to ELNELAEFARLQDQLDHRGDH (domain or fragment, human, UniProt Q96D31 272-292, looked up) [MBP-Orai1 C_(272–292)], the binding result in data set [1], in data set [2], in data set [3] and in data set [4] was “binds” throughout. Consider B1, for which the binding result in “SEC-MALS” is “binds”. Regarding B2, the binding result in “SEC-MALS” is on record as “binds”. Consider B3, for which the binding result in “SEC-MALS” is reported as “binds”.

B4: STIM1 CC1_([TM-distal])-CC2 K382E/K384E/K385E/K386E (domain or fragment, human, UniProt Q13586 312-387, looked up)
chain: SRQKYAEEELEQVREALRKAEKELESHSSWYAPEALQKWLQLTHEVEVQYYNIKKQNAEKQLLVAKEGAEEIEEER
On to B4, for which the binding result in the data set “SEC-MALS” is listed as “binds”. For the molecule ELNELAEFARLQDQLDHRGDH (peptide, UniProt Q96D31 272-292, looked up) [Orai1 C_(272–292)], the Kd in data set [5] was 100 to 600 µM.
